Molecular target: MUC1 cytoplasmic tail construct (MUC1 with the tandem repeat domain deleted) (human)
Experiment: co-IP

fold of co-precipitated protein against the input control [fold]	Substance
5.6	c-Jun (from UniProt P05412 1-331) (natural protein)
6.9	p53 (from UniProt P04637 1-393) (natural protein)
